Measured values: patent US20030180744

Legend:
[1] = target: T1, KGF (hKGF) (Homo sapiens) (UniProt P21781); assay: filter
T1 sequence: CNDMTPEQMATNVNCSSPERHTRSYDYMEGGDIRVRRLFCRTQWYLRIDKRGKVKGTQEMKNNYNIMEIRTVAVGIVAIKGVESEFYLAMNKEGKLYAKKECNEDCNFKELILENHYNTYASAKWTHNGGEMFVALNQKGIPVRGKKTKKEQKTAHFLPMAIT

[2] = target: T1, KGF (hKGF) (Homo sapiens); assay: FP; details: 2'-F pyrimidines; method is nitrocellulose filter binding; DPBS, 37 C
[3] = target: T1, KGF (hKGF) (Homo sapiens); assay: competition; details: 2'-F pyrimidines, PC-3 cells
PDGF-AB (Homo sapiens) = PDGF-AB (Homo sapiens) (UniProt P04085+P01127); assay: filter; details: 2'-F pyrimidines; +/-7; random pool
Chain of PDGF-AB (Homo sapiens) (P01127 82-190, chain 2 of 2, other chains not shown): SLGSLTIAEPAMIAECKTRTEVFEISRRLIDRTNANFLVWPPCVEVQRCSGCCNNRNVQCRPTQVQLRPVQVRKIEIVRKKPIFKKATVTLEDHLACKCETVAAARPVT

With “GGGAGGACGAUGCGGNNNNNNNNNNNNNNNNNNNNNNNNNNNNNNNNNNNNNNNNCAGACGACUCGCCCGA [random 2'-NH2 RNA 40N7]” the Kd ([1]; 2'-NH2 pyrimidines, random pool) was 30 nM.

“GGGAGGACGAUGCGGAACGGAGAUGUCCCCUCAAMAUUUACCGUCUCCGUUUGCGCCCCAGACGACUCGCCCGA [31F]” gave a Kd ([1]; 2'-F pyrimidines, DPBS, 37 C) of 1 nM.

“GGGAGGACGAUGCGGCAGUCUCCCUAGGUUUCAUCUCUGCAGCAUUCCGGGGUNCCAGACGACUCGCCCGA [51F]” showed a Kd ([1]; 2'-F pyrimidines, DPBS, 37 C) of 1.27 nM.

“GGGAGGACGAUGCGGGAAUUAACAGGGCCAGAAUUCUCAUCUNNCUUCCCGUGACCCAGACGACUCGCCCGA [12F]” gave a Kd [2] of 1.38 nM.

“GGGAGGACGAUGCGGGAAUUCCCAGCGCUUGACUGAUACAAACNUUCCCGUGCCCCAGACGACUCGCCCGA [16F]” gave a Kd ([1]; 2'-F pyrimidines, biphasic, high affinity 49%, Kd2 3.39 nM) of 0.83 nM.

“GGGAGGACGAUGCGGGGACAAWYAGCGGUGUCUUUUCAUUUNKAUCCUCCGACRUCCCAGACGACUCGCCCGA [56F]” showed a Kd ([1]; 2'-F pyrimidines, biphasic, high affinity 32%, Kd2 3.00 nM, PC-3 Ki 0.16 nM) of 0.07 nM, an IC50 [3] of 1 nM and a Ki ([3]; 27.4 nM on NIH3T3/FGFR-2) of 0.16 nM.

“GGGAGGACGAUGCGGNGACUGAUUUUUCCUUGNCAGUGUAAUUUCCUGGCUGCCCCAGACGACUCGCCCGA [38F]” was tested, and the Kd ([1]; 2'-F pyrimidines, DPBS, 37 C, PC-3 Ki 0.22 nM) was 0.33 nM, the IC50 [3] was 0.6 nM and the Ki ([3]; 20 nM on NIH3T3/FGFR-2) was 0.22 nM.

Work on “GGGAGACAAGAAUAACGCUCAANNNNNNNNNNNNNNNNNNNNNNNNNNNNNNNNNNNNNNNNNNNNNNNNNNUUCGACAGGAGGCUCACAACAGGC [random 2'-F RNA 50N]” yielded a Kd (PDGF-AB (Homo sapiens)) of 35 nM.

Sequence “GGGAGGACGAUGCGGCAANNNNNNNCUCUCUCCUGGCGUUCCGCAACCCGCCCCCAGACGACUCGCCCGA [19F]” has a Kd ([1]; 2'-F pyrimidines, second column 0.94-2.57, DPBS, 37 C) of 1.6 nM.

“GGGAGGACGAUGCGGNNNNNNNNNNNNNNNNNNNNNNNNNNNNNNNNNNNNNNNNCAGACGACUCGCCCGA [random 2'-F RNA 40N7]” gave a Kd ([1]; 2'-F pyrimidines, random pool) of 30 nM.

For “GGGAGGACGAUGCGGUCGAGUGUUCUCCUUCGGUAACUAUUNNNNAUUUCGUGCCCAGACGACUCGCCCGA [44F]”, the Kd ([1]; 2'-F pyrimidines, DPBS, 37 C) was 1.32 nM.
